“And” between values parts separate entries of the source, which are not always exact repeats. Equal values may be shown once. Where no end group is shown, it is not given here. Cy5 = cyanine-5 fluorescent label
T1: WD40 domain of Cdh1 from Saccharomyces cerevisiae (aa 241–550), for anisotropy (S. cerevisiae, UniProt P53197 241-550)
T1 chain: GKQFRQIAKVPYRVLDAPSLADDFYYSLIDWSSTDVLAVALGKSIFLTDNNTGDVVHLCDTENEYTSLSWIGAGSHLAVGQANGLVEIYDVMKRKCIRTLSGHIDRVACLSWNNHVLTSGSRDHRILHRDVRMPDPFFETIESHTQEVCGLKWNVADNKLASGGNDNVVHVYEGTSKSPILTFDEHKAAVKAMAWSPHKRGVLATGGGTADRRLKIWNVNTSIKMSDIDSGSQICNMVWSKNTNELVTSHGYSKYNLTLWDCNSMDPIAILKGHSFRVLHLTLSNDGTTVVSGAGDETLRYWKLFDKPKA

T2: WD40 domain of human Cdc20 (aa 162–484), for anisotropy (human, UniProt Q12834 162-484)
T2 chain: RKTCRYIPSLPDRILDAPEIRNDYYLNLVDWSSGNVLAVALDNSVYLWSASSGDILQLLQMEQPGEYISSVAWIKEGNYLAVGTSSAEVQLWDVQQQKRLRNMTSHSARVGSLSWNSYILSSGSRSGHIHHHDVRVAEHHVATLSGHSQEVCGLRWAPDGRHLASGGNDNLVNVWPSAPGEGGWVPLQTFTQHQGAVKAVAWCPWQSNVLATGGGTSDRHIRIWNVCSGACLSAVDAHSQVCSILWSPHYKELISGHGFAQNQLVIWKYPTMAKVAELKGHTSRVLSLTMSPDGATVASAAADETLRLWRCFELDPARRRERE


Experiments:
[1] = molecular target: T1, WD40 domain of Cdh1 from Saccharomyces …; experiment: FP; + unlabeled Hsl1 KEN peptide (100 uM)
[2] = molecular target: T2, WD40 domain of human Cdc20 (aa …); experiment: FP
[3] = molecular target: T1, WD40 domain of Cdh1 from Saccharomyces …; experiment: FP; + unlabeled Hsl1 KEN mutant peptide (100 uM)
[4] = molecular target: T1, WD40 domain of Cdh1 from Saccharomyces …; experiment: FP
[5] = molecular target: T1, WD40 domain of Cdh1 from Saccharomyces …; experiment: FP; + unlabeled Hsl1 D box mutant peptide (100 uM)
[6] = molecular target: T1, WD40 domain of Cdh1 from Saccharomyces …; experiment: FP; + unlabeled Hsl1 D box peptide (100 uM)

Row | Kd [4] | Binder | also measured
1 | 2.9 µM | EQKPKRAALSDITNSFNKMNK-Cy5 [Cy5-labeled Hsl1 D box peptide] | Kd [1]: 1.1 µM and 1.2 µM; Kd [2]: 2.5 µM; Kd [3]: 2.9 µM
2 | > 30.6 µM | AQQQGRLPLAAKDNNRSKSFIK-Cy5 [Cy5-labeled ySecurin D box peptide] | –
3 | > 30.6 µM | EQKPKAAAASDITASFNKMNK-Cy5 [Cy5-labeled Hsl1 D box mutant peptide] | –
4 | 22 µM | GVSTNKENEGPEYPTKIEK-Cy5 [Cy5-labeled Hsl1 KEN peptide] | Kd [5]: 16 µM and 11 µM; Kd [6]: 3.4 µM
5 | > 30.6 µM | QDSKPRRALTDVPVNNNPLSQK-Cy5 [Cy5-labeled Clb5 D box peptide] | –

From article PMC8764033 (2022)
